This is an account of results in article PMC4344342.

In the assay the target is RpL26-eGFP (UniProt P61254). Nature of the assay: fluorescence cross-correlation spectroscopy (FCCS); live HeLa cells co-transfected with the two labelled proteins, two-photon excitation at 1020 nm, green and red channels, cytoplasm.

As for NCp7-mCherry (natural protein), the percent of NCp7-mCherry molecules that cross-correlate with RpL26-eGFP fell in the range of 40 to 70%.
